From article PMC11756389

What was measured:
[1] = molecular target: two N-terminal domains (D1D2) of LILRB2 with a C-terminal biotinylation tag, biotinylated (human); test: SPR
[2] = molecular target: T1, paired immunoglobulin-like receptor B (PIR-B), C-terminal biotinylated (mouse), P97484; test: SPR
T1 chain: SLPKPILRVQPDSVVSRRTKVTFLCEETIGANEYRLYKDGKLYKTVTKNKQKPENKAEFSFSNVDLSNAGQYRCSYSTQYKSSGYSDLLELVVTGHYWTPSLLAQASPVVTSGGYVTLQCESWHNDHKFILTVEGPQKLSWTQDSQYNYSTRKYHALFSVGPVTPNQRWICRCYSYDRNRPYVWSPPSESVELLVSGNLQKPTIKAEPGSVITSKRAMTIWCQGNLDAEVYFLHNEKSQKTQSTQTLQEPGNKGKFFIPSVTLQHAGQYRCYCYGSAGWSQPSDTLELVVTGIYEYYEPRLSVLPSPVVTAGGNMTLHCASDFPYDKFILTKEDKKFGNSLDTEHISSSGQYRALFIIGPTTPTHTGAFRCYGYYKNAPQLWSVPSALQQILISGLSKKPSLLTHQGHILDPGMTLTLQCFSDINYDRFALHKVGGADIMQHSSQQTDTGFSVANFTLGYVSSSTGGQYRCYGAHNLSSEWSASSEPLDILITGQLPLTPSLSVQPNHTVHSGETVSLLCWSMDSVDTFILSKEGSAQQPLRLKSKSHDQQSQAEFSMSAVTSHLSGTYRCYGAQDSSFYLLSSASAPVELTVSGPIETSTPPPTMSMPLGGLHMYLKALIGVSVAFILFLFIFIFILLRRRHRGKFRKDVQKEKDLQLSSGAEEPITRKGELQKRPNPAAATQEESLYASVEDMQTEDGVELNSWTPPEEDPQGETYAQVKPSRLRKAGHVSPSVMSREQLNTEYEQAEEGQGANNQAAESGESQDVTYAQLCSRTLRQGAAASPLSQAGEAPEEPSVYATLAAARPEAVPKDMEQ

B1: soluble HLA-G2 homodimer (non-PEGylated) (domain or fragment)
chain: GSHSMRYFSAAVSRPGRGEPRFIAMGYVDDTQFVRFDSDSACPRMEPRAPWVEQEGPEYWEEETRNTKAHAQTDRMNLQTLRGYYNQSEANPPKTHVTHHPVFDYEATLRCWALGFYPAEIILTWQRDGEDQTQDVELVETRPAGDGTFQKWAAVVVPSGEEQRYTCHVQHEGLPEPLMLRW
modifications: not checked
[1]
  Kd: 0.041 to 0.064 pM
[2]
  specific binding response at 6.2 μM: 100 RU
